{"source": "patent US20240141025A1", "about": "(PROTHENA BIOSCIENCES, published 2024)", "binders": {"B1": {"name": "Hu14G8 H2L1 (antibody, human IgG1, kappa, V domains shown)", "VH": "EVQLVESGGGLVQPGGSLKLSCAASGFTFSSYTMSWVRQTPEKRLELVAEINNSGDTTYYPDTVKGRFTISRDNAKNTLYLQMSSLKSEDTAMYYCARHYYYGGGYGGWFFDVWGQGTLVTVSS", "VL": "DIVMTQSAPSLPVTPGESVSISCRSNKSLLHSNGNTYLYWFLQKPGQSPQLLIYRVSNLASGVPDRFSGSGSGTAFTLKISRVEAEDVGVYYCMQHLEYPLTFGQGTKLEIKR", "notes": "also called humanized 14G8 VHv2/VLv1"}, "B2": {"name": "Hu14G8 H2L3 (antibody, human IgG1, kappa, V domains shown)", "VH": "B1 VH", "VL": "B1 VL with A8P, P9L, S18P, V19A, N26S, D65S, A75D", "notes": "also called humanized 14G8 VHv2/VLv3"}, "B3": {"name": "Hu14G8 H3L1 (antibody, human IgG1, kappa, V domains shown)", "VH": "B1 VH with S84N, K87R, S88A, M93V", "VL": "B1 VL", "notes": "also called humanized 14G8 VHv3/VLv1"}, "B4": {"name": "Hu14G8 H2L2 (antibody, human IgG1, kappa, V domains shown)", "VH": "B1 VH", "VL": "B1 VL with A8P, P9L, S18P, V19A, A75D", "notes": "also called humanized 14G8 VHv2/VLv2"}, "B5": {"name": "Hu9D5 H3L1 (antibody, human IgG1, kappa, V domains shown)", "VH": "EVQLVESGGGLVQPGGSLRLSCAASGFTFSSYTMSWVRQAPGKGLEWVSEISNSGDTTYYPDTVKGRFTFSRDNAKNSLYLQSNLLRAEDTAVYYCARHYYYGGGYGGWFFDVWGQGTTVTVSS", "VL": "B1 VL with A8P, P9L, S18P, V19A, N26S, A75D", "notes": "also called humanized 9D5 VHv3/VLv1"}, "B6": {"name": "Hu9D5 H2L5 (antibody, human IgG1, kappa, V domains shown)", "VH": "B5 VH with W47L, S49A", "VL": "B1 VL with N26S, K44R, D65S, K79R", "notes": "also called humanized 9D5 VHv2/VLv5"}, "B7": {"name": "Hu9D5 H4L1 (antibody, human IgG1, kappa, V domains shown)", "VH": "B5 VH with F70I", "VL": "B1 VL with A8P, P9L, S18P, V19A, N26S, A75D", "notes": "also called humanized 9D5 VHv4/VLv1"}}, "note": "Numbering of substitutions follows the chain as printed."}
{"molecular_target": "T1, recombinant human TTR F87M/L110M (human, UniProt P02766 21-147)", "assay": "SPR (Biacore), mAb captured on anti-human chip, TTR F87M/L110M as analyte", "units": {"Kd": "nM", "koff": "s⁻¹", "kon": "M⁻¹ s⁻¹"}}
{"binder": "B1", "Kd": 2.26, "koff": 0.000693, "kon": 307000}
{"binder": "B2", "Kd": 1.24, "koff": 0.000318, "kon": 252000}
{"binder": "B3", "Kd": 1.76, "koff": 0.000677, "kon": 386000}
{"binder": "B4", "Kd": 2.1, "koff": 0.000683, "kon": 326000}
{"molecular_target": "T1, recombinant human TTR F87M/L110M", "assay": "SPR (Biacore), mAb captured on anti-human chip, TTR F87M/L110M as analyte", "remark": "another data set of the same source", "units": {"Kd": "nM", "koff": "s⁻¹", "kon": "M⁻¹ s⁻¹"}}
{"binder": "B5", "Kd": 4.32, "koff": 0.000657, "kon": 152000}
{"binder": "B6", "Kd": 6.84, "koff": 0.000785, "kon": 115000}
{"binder": "B7", "Kd": 2.09, "koff": 0.000533, "kon": 254000}
